Laboratory results from doi:10.1101/2020.08.05.237438 (bioRxiv, 2020).
Changes are numbered by the printed parent chain. In names and notes the source's numbering stands.

What was measured:
[1] = target: recombinant caseinolytic protease ClpP1 of Leptospira interrogans (L. interrogans serovar Copenhageni, UniProt Q72SG6 1-198); experiment: dynamic light scattering
[2] = target: recombinant ClpP1 S98A active-site mutant of Leptospira interrogans (L. interrogans serovar Copenhageni, UniProt Q72SG6 1-198, S98A); experiment: dynamic light scattering

B1: recombinant ClpP2 S97A active-site mutant of Leptospira interrogans (enzyme, L. interrogans serovar Copenhageni, UniProt Q72R01 1-197, looked up)
chain: MPETEKIAEVFEELTGSKISKNFLDHRKIFLWGPVTDESSKDLVGKLLYLEMKDPGKKITFYINSPGGVVTSGMTVFDTIKMISSPVHTVCMGMAAAMGSVLLAAGTKGERSIWPNGKVMIHQPSIGGQIVAPATDLKIHAEEILKTKTKLNQILADACGHPISKLEEDTDRDYYMDAEEAIKYGIVDKLATKIDFN
[1]
  binding result: binds

B2: recombinant caseinolytic protease ClpP2 of Leptospira interrogans (enzyme, L. interrogans serovar Copenhageni, UniProt Q72R01 1-197, looked up)
chain: B1 chain with A97S
[1]
  binding result: binds
[2]
  binding result: binds
